# Test results as given in ChEMBL document CHEMBL2073859, “Transport of 7-ethyl-10-hydroxycamptothecin (SN-38) by breast cancer resistance protein ABCG2 in human lung cancer cells” (Biochem Biophys Res Commun, 2001).
# B1: Broad substrate specificity ATP-binding cassette transporter ABCG2 (Homo sapiens) (protein)
# chain: MSSSNVEVFIPVSQGNTNGFPATASNDLKAFTEGAVLSFHNICYRVKLKSGFLPCRKPVEKEILSNINGIMKPGLNAILGPTGGGKSSLLDVLAARKDPSGLSGDVLINGAPRPANFKCNSGYVVQDDVVMGTLTVRENLQFSAALRLATTMTNHEKNERINRVIQELGLDKVADSKVGTQFIRGVSGGERKRTSIGMELITDPSILFLDEPTTGLDSSTANAVLLLLKRMSKQGRTIIFSIHQPRYSIFKLFDSLTLLASGRLMFHGPAQEALGYFESAGYHCEAYNNPADFFLDIINGDSTAVALNREEDFKATEIIEPSKQDKPLIEKLAEIYVNSSFYKETKAELHQLSGGEKKKKITVFKEISYTTSFCHQLRWVSKRSFKNLLGNPQASIAQIIVTVVLGLVIGAIYFGLKNDSTGIQNRAGVLFFLTTNQCFSSVSAVELFVVEKKLFIHEYISGYYRVSSYFLGKLLSDLLPMRMLPSIIFTCIVYFMLGLKPKADAFFVMMFTLMMVAYSASSMALAIAAGQSVVSVATLLMTICFVFMMIFSGLLVNLTTIASWLSWLQYFSIPRYGFTALQHNEFLGQNFCPGLNATGNNPCNYATCTGEEYLVKQGIDLSPWGLWKNHVALACMIVIFLTIAYLKLLFLKKYS
# Experiments:
# [1] = substrate: CCc1c2c(nc3ccc(O)cc13)-c1cc3c(c(=O)n1C2)COC(=O)[C@]3(O)CC; experiment: (§1) TP_TRANSPORTER: uptake in membrane vesicle from PC-6/SN2-5H cells; type: functional, cell membranes
# [2] = substrate: CCc1c2c(nc3ccc(OC[C@@H]4O[C@H](C(=O)O)[C@@H](O)[C@H](O)[C@H]4O)cc13)-c1cc3c(c(=O)n1C2)COC(=O)[C@]3(O)CC; experiment: as §1; type: functional, cell membranes
protein,measurement,setting,value
B1,Km,[1],4 µM
same,Km,[2],26 µM
